Data: patent US20230235004A1 (published 2023)
Changes are numbered by the printed parent chain. Blank lines part the entries; values can stand above or below the binder they belong to.

Key:
[1] = molecular target: T1, human MAdCAM expressed on cells (human, UniProt Q13477 19-382); experiment: cell binding
T1 construct: whole, on cells
T1 sequence (looked up): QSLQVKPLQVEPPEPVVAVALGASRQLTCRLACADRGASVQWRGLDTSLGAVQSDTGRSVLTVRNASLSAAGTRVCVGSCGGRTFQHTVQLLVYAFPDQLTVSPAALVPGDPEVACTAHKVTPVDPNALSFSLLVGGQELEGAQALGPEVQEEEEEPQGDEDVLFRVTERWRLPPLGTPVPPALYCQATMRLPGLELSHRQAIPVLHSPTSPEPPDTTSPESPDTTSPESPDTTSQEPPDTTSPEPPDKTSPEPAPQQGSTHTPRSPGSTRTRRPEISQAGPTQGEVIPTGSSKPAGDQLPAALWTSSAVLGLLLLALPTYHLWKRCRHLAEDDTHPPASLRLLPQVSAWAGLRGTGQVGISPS

[2] = molecular target: T2, mouse MAdCAM expressed on cells (mouse, UniProt Q61826 22-405); experiment: cell binding
T2 construct: whole, on cells
T2 sequence (looked up): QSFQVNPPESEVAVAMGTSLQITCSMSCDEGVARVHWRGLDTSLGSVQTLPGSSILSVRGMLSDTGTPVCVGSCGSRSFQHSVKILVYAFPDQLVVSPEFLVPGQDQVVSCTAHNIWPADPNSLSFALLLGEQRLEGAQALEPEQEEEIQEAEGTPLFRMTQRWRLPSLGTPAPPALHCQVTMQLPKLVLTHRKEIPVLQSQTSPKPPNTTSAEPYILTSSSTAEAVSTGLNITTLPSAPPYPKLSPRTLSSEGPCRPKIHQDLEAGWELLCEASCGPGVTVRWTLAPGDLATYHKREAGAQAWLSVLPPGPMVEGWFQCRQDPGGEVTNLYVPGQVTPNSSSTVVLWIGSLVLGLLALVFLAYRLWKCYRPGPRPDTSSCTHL

- binding result [1]: binds
- binding result [2]: no binding
B1: MAdCAM Antibody Table 2 clone 54 (antibody, V domains shown)
VH: QVQLVQSGAEVKKPGSSVKVSCKASGGTLSRYGVSWVRQAPGQGLEWMGGIIPIFGTTNYAQKFQGRVTITADESTSTAYMELSSLRSEDTAVYYCARDRVYYDSSGYPTWYFDLWGRGTLVTVSS
VL: EIVMTQSPATLSVSPGERATLSCRASQSVSSSYLAWYQQKPGQAPRLLIYGASTRATGIPARFSGSGSGTEFTLTISSLQSEDFAVYYCQQYGSSPITFGQGTKVEIK
notes: IgG format

- binding result [1]: binds
- binding result [2]: no binding
B2: MAdCAM Antibody Table 2 clone 62 (antibody, V domains shown)
VH: QVQLVQSGAEVKKPGASVKVSCKASGYTFTSYDINWVRQAPGQGLEWMGWINPNSGTTGYAQKFQGRVTMTRDTSTSTVYMELSSLRSEDTAVYYCARSPYYYYGMDVWGQGTTVTVSS
VL: DIQMTQSPSSLSASVGDRVTITCRASHFISRWVAWYQQKPGKAPKLLIYAASTLQSGVPSRFSGSGSGTDFTLTISSLQPEDFATYYCQQSYSGISFGPGTKVDIK
notes: IgG format

- binding result [1]: binds
- binding result [2]: no binding
B3: MAdCAM Antibody Table 2 clone 37 (antibody, V domains shown)
VH: EVQLLESGGGLVQPGGSLRLSCAASGFTFSDYGMPWVRQAPGKGLEWVSAISGSGGSTYYADSVKGRFTISRDNSKNTLYLQMNSLRAEDTAVYYCARDGGWQPAAILDYWGQGTLVTVSS
VL: DIQMTQSPSSLSASVGDRVTITCRASQGISNNLNWYQQKPGKAPKLLIYDASNLETGVPSRFSGSGSGTDFTLTISSLQPEDFATYYCQQSYSTPLTFGQGTKVEIK
notes: IgG format

- binding result [1]: binds
- binding result [2]: no binding
B4: MAdCAM Antibody Table 2 clone 67 (antibody, V domains shown)
VH: QVQLVQSGAEVKKPGASVKVSCKASGYTFTGYYMHWVRQAPGQGLEWMGMIYPRDGSTSYAQKFQGRVTMTRDTSTSTVYMELSSLRSEDTAVYYCAMTGWGYGMDVWGKGTTVTVSS
VL: B3 VL with S30N, N32Y, N34A, N53T, E55Q, T56S, T94A, L96P, V104L
notes: IgG format

- binding result [1]: binds
- binding result [2]: no binding
B5: MAdCAM Antibody Table 2 clone 71 (antibody, V domains shown)
VH: QVQLVQSGAEVKKPGASVKVSCKASGYTFTSYYMHWVRQAPGQGLEWMGIINPSGGSTSYAQKFQGRVTMTRDTSTSTVYMELSSLRSEDTAVYYCARDSVAGTGGRYYGMDVWGQGTLVTVSS
VL: B3 VL with N32Y, L33F, N34A, D50A, N53S, E55Q, T56G, T94L, L96Y, V104L
notes: IgG format

- binding result [1]: binds
- binding result [2]: no binding
B6: MAdCAM Antibody Table 2 clone 43 (antibody, V domains shown)
VH: QVQLVQSGAEVKKPGASVKVSCKASGYTFTSYGISWVRQAPGQGLEWMGWMHPKSGDTGLTQKFQGRVTMTRDTSTSTVYMELSSLRSEDTAVYYCARDTPYYYYGMDVWGQGTTVTVSS
VL: B3 VL with G28S, N31S, N32W, N34A, D50A, N53S, E55Q, T56S, T94V, L96I
notes: IgG format

- binding result [1]: binds
- binding result [2]: no binding
B7: MAdCAM Antibody Table 2 clone 53 (antibody, V domains shown)
VH: QVQLVQSGAEVKKPGASVKVSCKASGYTFTSYYMHWVRQAPGQGLEWMGWMNPNSGNTGYAQKFQGRVTMTRDTSTSTVYMELSSLRSEDTAVYYCAREGLGYCTNGVCWNYYGMDVWGQGTLVTVSS
VL: B3 VL with N31S, N32W, N34A, D50G, N53S, E55Q, T56S, L96Y
notes: IgG format

- binding result [1]: binds
- binding result [2]: no binding
B8: MAdCAM Antibody Table 2 clone 56 (antibody, V domains shown)
VH: EVQLVESGGGLVKPGGSLRLSCAASGFTFSSYWMSWVRQAPGKGLEWVSAIGTGGGTYYAAPVKGRFTISRDDSKNTLYLQMNSLKTEDTAVYYCAREWLVPYYGMDVWGQGTTVTVSS
VL: B3 VL with G28S, N31R, N32W, N34A, D50G, E55Q, T56S, L96W
notes: IgG format

- binding result [1]: binds
- binding result [2]: no binding
B9: MAdCAM Antibody Table 2 clone 42 (antibody, V domains shown)
VH: QVQLVQSGAEVKKPGASVKVSCKASGYTLTDYYMHWVRQAPGQGLEWMGIINPSGGSTSYAQKFQGRVTMTRDTSTSTVYMELSSLRSEDTAVYYCAREEYSSSSGYFDYWGQGTLVTVSS
VL: B3 VL with N31S, N32W, N34A, D50A, N53S, E55Q, T56S
notes: IgG format

- binding result [1]: binds
- binding result [2]: no binding
B10: MAdCAM Antibody Table 2 clone 41 (antibody, V domains shown)
VH: QVQLVQSGAEVKKPGASVKVSCKASGYTFTSYYMHWVRQAPGQGLEWMGIINPSGGSTSYAQKFQGRVTMTRDTSTSTVYMELSSLRSEDTAVYYCARDTGYSYGRYYYYGMDVWGQGTLVTVSS
VL: B3 VL with G28S, S30G, N31R, N32W, N34A, E55Q, T56S, T94I, L96I
notes: IgG format

- binding result [1]: binds
- binding result [2]: no binding
B11: MAdCAM Antibody Table 2 clone 39 (antibody, V domains shown)
VH: QVQLVQSGAEVKKPGASVKVSCKASGYTFTSYYMHWVRQAPGQGLEWMAWMNPNSGNTGYAQKFQGRVTMTRDTSTSTVYMELSSLRSEDTAVYYCARDYDFWSGSLGYWGQGTLVTVSS
VL: B3 VL with N32Y, N34A, D50A, N53S, E55Q, T56S, L96W
notes: IgG format

- binding result [1]: binds
- binding result [2]: no binding
B12: MAdCAM Antibody Table 2 clone 61 (antibody, V domains shown)
VH: QVQLVQSGAEVKKPGASVKVSCKASGDTFTGYYIHWVRQAPGQGLEWMGWINPNSGGTNYAQKFQGRVTMTRDTSTSTVYMELSSLRSEDTAVYYCARSGLWLGSYYGMDVWGQGTLVTVSS
VL: B3 VL with G28T, N31I, N32W, N34A, N53T, E55Q, T56S, S91Y, Y92S, T94Y
notes: IgG format

- binding result [1]: binds
- binding result [2]: no binding
B13: MAdCAM Antibody Table 2 clone 38 (antibody, V domains shown)
VH: QVQLVQSGAEVKKPGASVKVSCKASGYTFTDYFLHWVRQAPGQGLEWMGWMNPTSGNTGYAQKFQGRVTMTRDTSTSTVYMELSSLRSEDTAVYYCAREGEGSGFDYWGQGTLVTVSS
VL: B3 VL with S30N, N31S, N32W, N34A, Q100G
notes: IgG format

- binding result [1]: binds
- binding result [2]: no binding
B14: MAdCAM Antibody Table 2 clone 68 (antibody, V domains shown)
VH: EVQLLESGGGLVQPGGSLRLSCAASGFTFGDYAMSWVRQAPGKGLEWVAVVSYDGTNKYYADSVKGRFTISRDNSKNTLYLQMNSLRAEDTAVYYCAKDICSSTSCYFDLWGRGTLVTVSS
VL: B3 VL with G28N, S30N, N32Y, L33V, S91A, Y92N, T94F, L96P, K103R, V104L
notes: IgG format

- binding result [1]: binds
- binding result [2]: no binding
B15: MAdCAM Antibody Table 2 clone 64 (antibody, V domains shown)
VH: EVQLLESGGGLVQPGGSLRLSCAASGFTFSNSDMNWVRQAPGKGLEWVAHIWNDGSQKYYADSVKGRFTISRDNSKNTLYLQMNSLRAEDTAVYYCARDRTDPGYSSAMDVWGQGTTVTVSS
VL: B3 VL with G28D, S30R, N32Y, N34G, N53S, S91A, Y92T, T94L, Q100G
notes: IgG format

- binding result [1]: binds
- binding result [2]: no binding
B16: MAdCAM Antibody Table 2 clone 59 (antibody, V domains shown)
VH: B3 VH with T28S, P35H
VL: B3 VL with Q100G
notes: IgG format

- binding result [1]: binds
- binding result [2]: no binding
B17: MAdCAM Antibody Table 2 clone 57 (antibody, V domains shown)
VH: EVQLLESGGGLVQPGGSLRLSCAASGFSVSSNYMSWVRQAPGKGLEWVAGISYDGSSKPYADSVKGRFTISRDNSKNTLYLQMNSLRAEDTAVYYCARSRGIAARPLQHWGQGTLVTVSS
VL: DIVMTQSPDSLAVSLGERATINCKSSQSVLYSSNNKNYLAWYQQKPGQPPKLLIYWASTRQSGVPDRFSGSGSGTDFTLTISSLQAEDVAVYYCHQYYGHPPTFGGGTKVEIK
notes: IgG format

- binding result [1]: binds
- binding result [2]: no binding
B18: MAdCAM Antibody Table 2 clone 69 (antibody, V domains shown)
VH: QVQLVQSGAEVKKPGASVKVSCKASGYTFTSYYMHWVRQAPGQGLEWMGIIDPSGGSTSYAQKFQGRVTMTRDTSTSTVYMELSSLRSEDTAVYYCAREEWSSGGVGYFDYWGQGTLVTVSS
VL: DIQMTQSPSSLSASVGDRVTITCRASQGISSYLAWYQQKPGKAPKLLIYATSSLQTGVPSRFSGSGSGTDFTLTISSLQPEDFATYYCQQTYSIPITFGQGTRLEIK
notes: IgG format

- binding result [1]: binds
- binding result [2]: no binding
B19: MAdCAM Antibody Table 2 clone 70 (antibody, V domains shown)
VH: QVQLVQSGAEVKKPGASVKVSCKASGYPFTDYYMHWVRQAPGQGLEWMGWIKPNSGDTEYAQKFQGRVTMTRDTSTSTVYMELSSLRSEDTAVYYCARDRFVGKPDYYYYGMDVWGQGTMVTVSS
VL: B18 VL with G28S, S31V, Y32W, T51A, T56S, T91S, S93D, I94T, I96Y, R103K
notes: IgG format

- binding result [1]: binds
- binding result [2]: no binding
B20: MAdCAM Antibody Table 2 clone 66 (antibody, V domains shown)
VH: QVQLVQSGAEVKKPGASVKVSCKASGYTFTGHYMHWVRQAPGQGLEWMGIINPSGGSTSYAQKFQGRVTMTRDTSTSTVYMELSSLRSEDTAVYYCARDGAWFGEEYYYGMDVWGQGTTVTVSS
VL: DIQMTQSPSSLSASVGDRVTITCRASQGISNWLAWYQQKPGKAPKLLIYDASNLETGVPSRFSGSGSGTDFTLTISSLQPEDFATYYCQQYYSFPLYTFGQGTKVEIK
notes: IgG format

- binding result [1]: binds
- binding result [2]: no binding
B21: MAdCAM Antibody Table 2 clone 44 (antibody, V domains shown)
VH: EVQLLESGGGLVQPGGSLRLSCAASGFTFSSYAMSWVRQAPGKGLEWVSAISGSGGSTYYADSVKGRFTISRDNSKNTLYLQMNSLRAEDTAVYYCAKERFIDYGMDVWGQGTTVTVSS
VL: DIQMTQSPSSLSASVGDRVTITCQASQDISNYLNWYQQKPGKAPKLLIYAASSLQSGVPSRFSGSGSGTDFTLTISSLQPEDFATYYCQQTYSGWTFGPGTKVDIK
notes: IgG format
